# Positions of bridges follow the written chain, without caps; N, C: chain ends.
# T1: chick N-cadherin expressed on transfected 3T3 cells (chick, UniProt P10288 165-912)
# T1 sequence (looked up): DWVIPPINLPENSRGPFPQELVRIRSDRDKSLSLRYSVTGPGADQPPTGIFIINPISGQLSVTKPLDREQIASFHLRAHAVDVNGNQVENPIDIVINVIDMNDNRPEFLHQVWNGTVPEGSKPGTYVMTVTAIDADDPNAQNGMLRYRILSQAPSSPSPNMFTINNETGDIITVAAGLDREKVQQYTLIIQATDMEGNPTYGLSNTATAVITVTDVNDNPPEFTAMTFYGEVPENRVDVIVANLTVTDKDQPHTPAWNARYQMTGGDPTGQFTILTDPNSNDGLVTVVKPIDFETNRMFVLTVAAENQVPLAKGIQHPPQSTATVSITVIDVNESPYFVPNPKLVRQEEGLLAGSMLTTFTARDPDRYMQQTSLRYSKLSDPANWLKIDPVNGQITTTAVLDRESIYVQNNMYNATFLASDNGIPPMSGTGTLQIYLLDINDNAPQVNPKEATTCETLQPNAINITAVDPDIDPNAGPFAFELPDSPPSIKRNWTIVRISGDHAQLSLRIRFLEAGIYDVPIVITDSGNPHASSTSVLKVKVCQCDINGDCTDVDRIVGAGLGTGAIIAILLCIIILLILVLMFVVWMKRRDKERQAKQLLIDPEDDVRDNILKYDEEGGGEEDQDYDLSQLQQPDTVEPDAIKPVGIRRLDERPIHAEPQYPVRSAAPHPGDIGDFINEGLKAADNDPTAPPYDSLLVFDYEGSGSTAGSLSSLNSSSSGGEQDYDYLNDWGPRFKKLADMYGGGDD
# Key:
# [1] = target: N-cadherin expressed on transfected 3T3 cells (Examples 2 and 21); assay: cell-based or functional assay
# [2] = target: T1, chick N-cadherin expressed on …; assay: cell-based or functional assay
Binder,"% Inhibition of neurite outgrowth, 250 µg/mL (rat neurons) [1] [%]",% inhibition of N-cadherin dependent neurite outgrowth (peptide 250 µg/mL) [2] [%]
Ac-CHGVC-NH2 (disulfide 1-5 (inferred)) [N-Ac-CHGVC-NH2],0,4.8
H-CHGVC-NH2 (disulfide 1-5 (inferred)) [H-CHGVC-NH2],0,7.8
Ac-KHAVD-NH2 (lactam 1-5 (inferred)) [N-Ac-KHAVD-NH2],0,
Ac-KHGVD-NH2 (lactam 1-5 (inferred)) [N-Ac-KHGVD-NH2],0,
H-KHAVD-NH2 (lactam 1-5 (inferred)) [H-KHAVD-NH2],0,
H-KHGVD-NH2 (lactam 1-5 (inferred)) [H-KHGVD-NH2],0,
Ac-CHGVDC-NH2 (disulfide 1-6 (inferred)) [N-Ac-CHGVDC-NH2],0,-8.6
Ac-CAHAVC-NH2 (disulfide 1-6 (inferred)) [N-Ac-CAHAVC-NH2],51,58.5
Ac-CAHGVC-NH2 (disulfide 1-6 (inferred)) [N-Ac-CAHGVC-NH2],0,-6.4
Ac-CAHAVDIC-NH2 (disulfide 1-8 (inferred)) [N-Ac-CAHAVDIC-NH2],82,89.4
Ac-CAHGVDIC-NH2 (disulfide 1-8 (inferred)) [N-Ac-CAHGVDIC-NH2],0,4.8
Ac-CRAHAVDC-NH2 (disulfide 1-8 (inferred)) [N-Ac-CRAHAVDC-NH2],0,-5
Ac-CRAHGVDC-NH2 (disulfide 1-8 (inferred)) [N-Ac-CRAHGVDC-NH2],0,-8
Ac-CLRAHAVC-NH2 (disulfide 1-8 (inferred)) [N-Ac-CLRAHAVC-NH2],0,9.9
Ac-CLRAHGVC-NH2 (disulfide 1-8 (inferred)) [N-Ac-CLRAHGVC-NH2],0,-0.5
Ac-CLRAHAVDC-NH2 (disulfide 1-9 (inferred)) [N-Ac-CLRAHAVDC-NH2],60,76.3
Ac-CAHAVDC-NH2 (disulfide 1-7 (inferred)) [N-Ac-CAHAVDC-NH2],,13.3
Ac-CAHGVDC-NH2 (disulfide 1-7 (inferred)) [N-Ac-CAHGVDC-NH2],,4

# Source: patent US20040106545A1 (MCGILL UNIVERSITY, published 2004)
